Results: article PMC8307404, “Crystal Structure-Guided Design of Bisubstrate Inhibitors and Photoluminescent Probes for Protein Kinases of the PIM Family” (Molecules, 2021)
Square brackets hold non-standard residues; d marks the D form. Peptide text beside a SMILES is read from it. * marks the point of attachment. X3 = O=C(CCCCCNCc1nc2c(sc3cc(Br)cnc32)c(=O)[nH]1)*

Legend:
Assay in all cases: Kinase profiling (radiometric filter-binding)
Assay type in all cases: biochemical
IRR = IRR (Homo sapiens, UniProt P14616); details: 1 µM inhibitor, read-out: Residual activity, %
Chain of IRR (P14616 27-1297): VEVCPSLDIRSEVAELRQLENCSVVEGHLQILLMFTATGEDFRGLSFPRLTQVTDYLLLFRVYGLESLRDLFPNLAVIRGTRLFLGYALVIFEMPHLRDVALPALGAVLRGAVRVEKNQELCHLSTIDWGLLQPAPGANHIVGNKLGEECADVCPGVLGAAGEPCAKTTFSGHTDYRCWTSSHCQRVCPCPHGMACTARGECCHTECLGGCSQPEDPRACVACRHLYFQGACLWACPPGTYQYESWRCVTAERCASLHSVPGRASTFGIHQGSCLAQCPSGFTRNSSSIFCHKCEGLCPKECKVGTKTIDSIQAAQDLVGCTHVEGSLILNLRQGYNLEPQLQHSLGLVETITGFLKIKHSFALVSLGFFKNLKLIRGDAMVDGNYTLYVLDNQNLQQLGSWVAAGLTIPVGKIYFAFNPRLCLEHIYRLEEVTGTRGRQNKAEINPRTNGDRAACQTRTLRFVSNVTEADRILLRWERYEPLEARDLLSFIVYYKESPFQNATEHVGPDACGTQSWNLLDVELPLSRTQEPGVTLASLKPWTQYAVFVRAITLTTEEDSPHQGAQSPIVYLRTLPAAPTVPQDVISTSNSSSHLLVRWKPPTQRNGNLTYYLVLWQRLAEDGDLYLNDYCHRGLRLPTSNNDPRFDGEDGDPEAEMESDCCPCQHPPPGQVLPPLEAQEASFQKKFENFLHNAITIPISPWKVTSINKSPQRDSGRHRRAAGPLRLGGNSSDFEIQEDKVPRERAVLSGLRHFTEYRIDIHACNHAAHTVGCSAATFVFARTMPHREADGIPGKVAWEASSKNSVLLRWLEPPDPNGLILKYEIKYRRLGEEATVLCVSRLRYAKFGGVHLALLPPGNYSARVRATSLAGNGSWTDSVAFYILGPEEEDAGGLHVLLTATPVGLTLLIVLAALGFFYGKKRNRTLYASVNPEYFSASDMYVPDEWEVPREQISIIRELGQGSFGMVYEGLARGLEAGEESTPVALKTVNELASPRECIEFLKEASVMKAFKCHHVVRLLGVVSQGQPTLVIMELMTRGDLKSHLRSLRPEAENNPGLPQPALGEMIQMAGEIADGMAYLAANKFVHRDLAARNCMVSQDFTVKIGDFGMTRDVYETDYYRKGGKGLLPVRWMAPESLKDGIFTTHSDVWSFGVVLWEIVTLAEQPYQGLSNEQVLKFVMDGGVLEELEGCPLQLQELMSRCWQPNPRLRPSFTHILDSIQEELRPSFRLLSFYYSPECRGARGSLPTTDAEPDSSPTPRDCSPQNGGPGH
Summary of the method: (§1)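 Activity remaining (% of control without inhibitor) at 1 µM final compound; human kinases, ATP ≤ KM, radiometric filter binding.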

PAK2 = PAK2 (Homo sapiens, UniProt Q13177); details: PAK2, 1 µM inhibitor; read-out: Residual activity, %
Summary of the method: as §1

NEK2 = molecular target: T1, NEK2 (Homo sapiens, UniProt P51955); details: NEK2 (letter lost), 1 µM inhibitor; read-out: Residual activity, %
T1 sequence (P51955 1-445): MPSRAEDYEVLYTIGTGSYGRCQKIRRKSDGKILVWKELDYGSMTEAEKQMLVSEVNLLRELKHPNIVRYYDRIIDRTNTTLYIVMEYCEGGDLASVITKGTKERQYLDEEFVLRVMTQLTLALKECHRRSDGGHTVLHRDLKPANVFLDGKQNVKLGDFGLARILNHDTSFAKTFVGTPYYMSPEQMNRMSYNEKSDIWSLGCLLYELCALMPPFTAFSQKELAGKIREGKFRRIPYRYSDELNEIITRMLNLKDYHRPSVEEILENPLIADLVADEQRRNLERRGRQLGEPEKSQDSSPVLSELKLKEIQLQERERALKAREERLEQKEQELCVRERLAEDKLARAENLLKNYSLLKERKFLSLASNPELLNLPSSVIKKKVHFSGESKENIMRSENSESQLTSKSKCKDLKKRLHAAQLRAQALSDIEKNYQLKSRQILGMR
Summary of the method: as §1

MKK1 = MKK1 (Homo sapiens, UniProt Q02750); details: MKK1, 1 µM inhibitor; read-out: Residual activity, %
Chain of MKK1 (Q02750 whole entry): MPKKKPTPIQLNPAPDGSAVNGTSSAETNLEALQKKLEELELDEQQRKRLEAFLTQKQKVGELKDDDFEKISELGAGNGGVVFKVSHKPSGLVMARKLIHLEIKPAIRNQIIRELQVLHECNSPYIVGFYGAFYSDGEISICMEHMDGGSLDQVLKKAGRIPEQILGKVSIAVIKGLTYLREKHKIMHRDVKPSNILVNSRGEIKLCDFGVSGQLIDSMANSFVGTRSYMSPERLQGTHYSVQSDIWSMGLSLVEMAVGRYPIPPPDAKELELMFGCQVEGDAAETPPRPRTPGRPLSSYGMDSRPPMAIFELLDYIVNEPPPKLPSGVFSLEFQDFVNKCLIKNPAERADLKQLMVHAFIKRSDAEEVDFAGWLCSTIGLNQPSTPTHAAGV
Summary of the method: as §1

PRK2 = PRK2 (Homo sapiens, UniProt Q16513); details: PRK2, 1 µM inhibitor; read-out: Residual activity, %
Chain of PRK2 (Q16513 whole entry): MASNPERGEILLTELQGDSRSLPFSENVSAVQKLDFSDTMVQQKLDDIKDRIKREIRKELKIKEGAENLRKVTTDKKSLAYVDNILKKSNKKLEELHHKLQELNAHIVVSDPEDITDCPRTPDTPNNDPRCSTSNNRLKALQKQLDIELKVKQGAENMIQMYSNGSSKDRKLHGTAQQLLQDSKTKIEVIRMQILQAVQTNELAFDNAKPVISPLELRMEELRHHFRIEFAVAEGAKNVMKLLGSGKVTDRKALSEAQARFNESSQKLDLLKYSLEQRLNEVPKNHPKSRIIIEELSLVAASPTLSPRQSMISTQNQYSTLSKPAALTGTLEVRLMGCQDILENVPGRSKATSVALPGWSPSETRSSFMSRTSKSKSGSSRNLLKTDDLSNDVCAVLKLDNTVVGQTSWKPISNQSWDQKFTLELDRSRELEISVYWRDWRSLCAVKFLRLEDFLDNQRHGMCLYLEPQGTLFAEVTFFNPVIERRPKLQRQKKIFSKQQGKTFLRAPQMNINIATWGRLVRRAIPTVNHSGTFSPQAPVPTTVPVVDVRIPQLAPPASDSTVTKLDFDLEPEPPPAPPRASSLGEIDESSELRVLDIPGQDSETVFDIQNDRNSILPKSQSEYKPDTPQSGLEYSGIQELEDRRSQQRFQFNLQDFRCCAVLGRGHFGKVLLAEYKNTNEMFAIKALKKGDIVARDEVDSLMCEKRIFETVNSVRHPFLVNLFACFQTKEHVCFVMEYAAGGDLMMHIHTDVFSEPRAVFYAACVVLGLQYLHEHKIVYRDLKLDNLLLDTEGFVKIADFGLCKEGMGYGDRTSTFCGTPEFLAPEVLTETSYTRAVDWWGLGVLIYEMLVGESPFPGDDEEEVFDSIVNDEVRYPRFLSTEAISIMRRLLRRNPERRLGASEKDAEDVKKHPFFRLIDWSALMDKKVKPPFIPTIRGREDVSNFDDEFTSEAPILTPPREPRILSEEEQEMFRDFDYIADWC
Summary of the method: as §1

GCK = molecular target: T2, GCK (Homo sapiens, UniProt Q12851); details: 1 µM inhibitor, read-out: Residual activity, %
T2 sequence (Q12851 1-820): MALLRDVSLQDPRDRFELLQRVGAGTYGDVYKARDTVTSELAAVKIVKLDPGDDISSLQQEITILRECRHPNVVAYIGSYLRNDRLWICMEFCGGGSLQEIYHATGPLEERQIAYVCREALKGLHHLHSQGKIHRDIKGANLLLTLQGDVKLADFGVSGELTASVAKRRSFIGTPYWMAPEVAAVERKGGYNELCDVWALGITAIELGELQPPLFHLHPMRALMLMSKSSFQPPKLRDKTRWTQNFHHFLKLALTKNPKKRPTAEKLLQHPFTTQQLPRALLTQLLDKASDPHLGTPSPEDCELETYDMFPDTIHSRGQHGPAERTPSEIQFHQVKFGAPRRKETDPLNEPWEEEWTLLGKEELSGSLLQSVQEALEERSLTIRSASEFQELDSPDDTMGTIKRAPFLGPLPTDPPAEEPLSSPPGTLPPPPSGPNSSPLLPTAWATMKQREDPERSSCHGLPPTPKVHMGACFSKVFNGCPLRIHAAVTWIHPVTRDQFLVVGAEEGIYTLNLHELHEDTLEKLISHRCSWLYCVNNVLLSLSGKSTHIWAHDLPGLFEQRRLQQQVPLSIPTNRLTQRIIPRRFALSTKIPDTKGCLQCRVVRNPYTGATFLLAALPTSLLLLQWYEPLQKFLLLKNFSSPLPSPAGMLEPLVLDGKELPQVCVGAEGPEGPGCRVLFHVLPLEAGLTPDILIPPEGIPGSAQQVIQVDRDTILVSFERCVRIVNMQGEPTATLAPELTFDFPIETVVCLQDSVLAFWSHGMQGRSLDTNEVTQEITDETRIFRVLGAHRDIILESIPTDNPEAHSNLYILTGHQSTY
Summary of the method: as §1

ERK8 = molecular target: T3, ERK8 (Homo sapiens, UniProt Q8TD08); details: ERK8, 1 µM inhibitor; read-out: Residual activity, %
T3 sequence (Q8TD08 1-544): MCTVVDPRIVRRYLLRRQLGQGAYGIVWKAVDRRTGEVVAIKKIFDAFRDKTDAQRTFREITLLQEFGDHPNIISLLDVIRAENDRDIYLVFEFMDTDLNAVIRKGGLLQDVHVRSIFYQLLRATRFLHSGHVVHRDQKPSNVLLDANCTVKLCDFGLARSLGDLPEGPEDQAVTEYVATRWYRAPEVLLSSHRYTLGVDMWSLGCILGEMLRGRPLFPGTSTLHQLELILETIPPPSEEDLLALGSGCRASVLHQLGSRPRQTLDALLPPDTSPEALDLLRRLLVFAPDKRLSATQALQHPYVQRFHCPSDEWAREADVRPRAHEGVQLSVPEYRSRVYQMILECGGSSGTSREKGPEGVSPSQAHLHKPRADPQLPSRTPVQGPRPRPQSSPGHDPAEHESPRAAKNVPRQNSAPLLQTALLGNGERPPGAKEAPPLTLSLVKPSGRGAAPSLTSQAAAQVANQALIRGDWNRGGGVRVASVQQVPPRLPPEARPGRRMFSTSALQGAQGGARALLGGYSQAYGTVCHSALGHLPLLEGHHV
Summary of the method: as §1

PIM3 = PIM3 (Homo sapiens, UniProt Q86V86); details: PIM3, 1 µM inhibitor; read-out: Residual activity, %
Summary of the method: as §1

CLK2 = CLK2 (Homo sapiens, UniProt P49760); details: CLK2, 1 µM inhibitor; read-out: Residual activity, %
Chain of CLK2 (P49760 whole entry): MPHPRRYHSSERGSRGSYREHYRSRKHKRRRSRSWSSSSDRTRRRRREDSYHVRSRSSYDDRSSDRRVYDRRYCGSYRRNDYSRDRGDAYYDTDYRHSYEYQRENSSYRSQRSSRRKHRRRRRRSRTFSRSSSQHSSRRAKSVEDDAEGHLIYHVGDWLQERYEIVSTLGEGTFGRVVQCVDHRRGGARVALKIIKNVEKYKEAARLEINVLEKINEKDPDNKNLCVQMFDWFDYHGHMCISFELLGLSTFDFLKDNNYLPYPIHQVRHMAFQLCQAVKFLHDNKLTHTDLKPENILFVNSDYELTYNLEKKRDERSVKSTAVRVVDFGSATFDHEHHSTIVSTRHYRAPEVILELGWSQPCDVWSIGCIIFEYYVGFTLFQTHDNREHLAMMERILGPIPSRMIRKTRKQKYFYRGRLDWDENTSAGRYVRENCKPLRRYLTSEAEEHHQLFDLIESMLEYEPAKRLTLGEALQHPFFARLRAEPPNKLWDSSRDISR
Summary of the method: as §1

ERK2 = ERK2 (Homo sapiens, UniProt P28482); details: ERK2, 1 µM inhibitor; read-out: Residual activity, %
Chain of ERK2 (P28482 whole entry): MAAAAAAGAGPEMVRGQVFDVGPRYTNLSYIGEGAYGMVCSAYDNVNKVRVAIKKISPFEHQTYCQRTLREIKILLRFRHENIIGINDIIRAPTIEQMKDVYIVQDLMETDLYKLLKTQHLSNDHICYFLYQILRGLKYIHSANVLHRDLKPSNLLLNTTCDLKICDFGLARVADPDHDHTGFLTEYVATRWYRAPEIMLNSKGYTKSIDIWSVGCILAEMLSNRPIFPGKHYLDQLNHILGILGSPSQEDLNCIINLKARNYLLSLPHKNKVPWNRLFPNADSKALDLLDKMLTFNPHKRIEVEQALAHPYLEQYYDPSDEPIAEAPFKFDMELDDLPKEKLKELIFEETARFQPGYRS
Summary of the method: as §1

MELK = MELK (Homo sapiens, UniProt Q14680); details: 1 µM inhibitor, read-out: Residual activity, %
Chain of MELK (Q14680 whole entry): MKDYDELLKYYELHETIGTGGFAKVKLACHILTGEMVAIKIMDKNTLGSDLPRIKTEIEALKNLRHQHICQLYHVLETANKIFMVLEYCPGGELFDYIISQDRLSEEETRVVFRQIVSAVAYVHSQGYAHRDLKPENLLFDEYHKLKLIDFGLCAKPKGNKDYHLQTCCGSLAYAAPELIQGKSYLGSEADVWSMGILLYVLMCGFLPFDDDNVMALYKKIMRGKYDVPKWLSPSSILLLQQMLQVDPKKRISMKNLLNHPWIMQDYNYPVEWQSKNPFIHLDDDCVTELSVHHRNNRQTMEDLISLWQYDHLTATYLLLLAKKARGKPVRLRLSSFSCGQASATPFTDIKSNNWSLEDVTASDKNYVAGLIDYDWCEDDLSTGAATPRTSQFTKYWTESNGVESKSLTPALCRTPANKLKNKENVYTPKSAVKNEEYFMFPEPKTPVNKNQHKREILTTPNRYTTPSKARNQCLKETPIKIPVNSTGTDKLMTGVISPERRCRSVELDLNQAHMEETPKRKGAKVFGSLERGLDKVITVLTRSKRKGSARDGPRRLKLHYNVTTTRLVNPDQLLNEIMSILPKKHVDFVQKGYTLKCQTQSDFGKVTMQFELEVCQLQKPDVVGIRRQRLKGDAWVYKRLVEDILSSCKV
Summary of the method: as §1

Aurora B = Aurora B (Homo sapiens, UniProt Q96GD4); details: 1 µM inhibitor, read-out: Residual activity, %
Chain of Aurora B (Q96GD4 whole entry): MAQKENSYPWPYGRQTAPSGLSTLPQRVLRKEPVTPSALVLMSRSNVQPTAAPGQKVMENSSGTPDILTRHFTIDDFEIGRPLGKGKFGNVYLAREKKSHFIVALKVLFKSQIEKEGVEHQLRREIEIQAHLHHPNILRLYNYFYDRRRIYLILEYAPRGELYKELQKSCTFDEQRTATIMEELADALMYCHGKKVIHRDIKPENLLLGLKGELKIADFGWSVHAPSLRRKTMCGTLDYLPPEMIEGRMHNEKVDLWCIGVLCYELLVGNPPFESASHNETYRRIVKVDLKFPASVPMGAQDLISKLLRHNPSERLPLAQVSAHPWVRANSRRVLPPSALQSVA
Summary of the method: as §1

Structure (SMILES) | remaining activity at 1 µM (IRR) [%] | remaining activity at 1 µM (PAK2) [%] | remaining activity at 1 µM (NEK2) [%] | remaining activity at 1 µM (MKK1) [%] | remaining activity at 1 µM (PRK2) [%] | remaining activity at 1 µM (GCK) [%] | remaining activity at 1 µM (ERK8) [%] | remaining activity at 1 µM (PIM3) [%] | remaining activity at 1 µM (CLK2) [%] | remaining activity at 1 µM (ERK2) [%] | remaining activity at 1 µM (MELK) [%] | remaining activity at 1 µM (Aurora B) [%]
N=C(N)NCCC[C@@H](NC(=O)CNC(=O)[C@@H](CCCNC(=N)N)NC(=O)[C@@H](CCCNC(=N)N)NC(=O)CCCCCCCNCc1nc2c(sc3cc(Br)cnc32)c(=O)[nH]1)C(=O)N[C@H](CCCCN)C(N)=O [Compound 1, BPTP-Aoc-(D-Arg)2-Gly-D-Arg-D-Lys-NH2] | 99 ± 2 | 99 ± 9 | 108 ± 5 | 93 ± 4 | 92 ± 2 | 112 | 109 ± 8 | 17 | 97 | 101 ± 14 | 86 ± 5 | 102 ± 19
N=C(N)NCCC[C@@H](NC(=O)CCCCCNCc1nc2c(sc3cc(Br)cnc32)c(=O)[nH]1)C(=O)N[C@H](CCCNC(=N)N)C(=O)N[C@H](CCCNC(=N)N)C(=O)N[C@H](CCCNC(=N)N)C(=O)N[C@H](CCCNC(=N)N)C(=O)N[C@H](CCCNC(=N)N)C(=O)N[C@H](CCCCN)C(N)=O [ARC-3126, BPTP-Ahx-(D-Arg)6-D-Lys-NH2] (X3-[dR][dR][dR][dR][dR][dR][dK]-NH2) | 75 ± 4 | 72 ± 5 | 91 ± 2 | 100 ± 6 | 58 ± 15 | 88 ± 14 | 49 ± 30 | 13 | 57 ± 15 | 166 ± 1 | 79 ± 1 | 114 ± 20
N=C(N)NCCC[C@@H](NC(=O)CCCCCNC(=O)Cn1cnc2c(I)c(I)c(I)c(I)c21)C(=O)N[C@H](CCCNC(=N)N)C(=O)N[C@H](CCCNC(=N)N)C(=O)N[C@H](CCCNC(=N)N)C(=O)N[C@H](CCCNC(=N)N)C(=O)N[C@H](CCCNC(=N)N)C(=O)N[C@H](CCCCN)C(N)=O [ARC-3125, TIBI-CH2-C(=O)-Ahx-(D-Arg)6-D-Lys-NH2] | 20 ± 34 | 29 ± 4 | 21 ± 3 | 32 ± 27 | 16 ± 6 | 56 ± 4 | 18 ± 9 | 7 ± 1 | -1 ± 5 | 161 ± 4 | 34 ± 4 | 100 ± 4
N=C(N)NCCC[C@@H](NC(=O)CNC(=O)[C@@H](CCCNC(=N)N)NC(=O)[C@@H](CCCNC(=N)N)NC(=O)CCCCCCCNCc1nc2c(sc3ccc(Br)cc32)c(=O)[nH]1)C(=O)N[C@H](CCCCN)C(N)=O [Compound 2, BBTP-Aoc-(D-Arg)2-Gly-D-Arg-D-Lys-NH2] | 99 ± 5 | 100 ± 10 | 119 ± 12 | 94 ± 1 | 94 ± 12 | 114 ± 2 | 78 ± 17 | 4 ± 1 | 24 | 102 ± 1 | 75 ± 9 | 98 ± 2
N=C(N)NCCC[C@@H](NC(=O)CNC(=O)[C@@H](CCCNC(=N)N)NC(=O)[C@@H](CCCNC(=N)N)NC(=O)Cn1cc(CNCc2nc3c(sc4ccc(Br)cc43)c(=O)[nH]2)nn1)C(=O)N[C@H](CCCCN)C(N)=O [Compound 3, BBTP-Amt-(D-Arg)2-Gly-D-Arg-D-Lys-NH2] | 110 ± 1 | 91 ± 4 | 92 ± 1 | 92 ± 6 | 67 ± 4 | 97 ± 7 | 83 ± 2 | 6 | 30 ± 1 | 104 ± 5 | 73 ± 11 | 111 ± 1
